Reference: paper PMC5823459

Experiments:
[1] = target: mouse-human chimeric mAb 101F; experiment: ELISA
D25 [2] = experiment: ELISA
D25 [3] = conditions: cells fixed with 4% (vol/vol) paraformaldehyde 16 h after transfection; read off a plot
palivizumab = conditions: cells fixed with 4% (vol/vol) paraformaldehyde 16 h after transfection; read off a plot

With post-fusion RSV A2 F protein G430A the EC50 [1] was 0.035 µg/mL.
In the case of post-fusion RSV A2 F protein I432A, the EC50 [1] was 0.066 µg/mL.
For post-fusion RSV A2 F protein R429A, the EC50 [1] was 0.026 µg/mL.
Substance pre-fusion RSV A2 F SC-TM protein G430A has an EC50 [1] of 0.97 µg/mL.
In the case of pre-fusion RSV A2 F SC-TM protein R429A, the EC50 (D25 [2]) was 0.023 µg/mL.
Work on “wild-type RSV F (RSV-A2) expressed on HEK-293T cells G430A” yielded a percent of parent (D25 [3]) of 310 % WT and a percent of parent (palivizumab) of 400 % WT.
“wild-type RSV F (RSV-A2) expressed on HEK-293T cells I432A” showed a percent of parent (D25 [3]) of 240 % WT and a percent of parent (palivizumab) of 260 % WT.
“wild-type RSV F (RSV-A2) expressed on HEK-293T cells R429A” gave a percent of parent (D25 [3]) of 390 % WT and a percent of parent (palivizumab) of 310 % WT.
